# Experimental data taken from the supplement of paper PMC10567573.
# B1: INTS3 (parent)
# chain: FSDDEEDLNSKGKKREFRFHPIKE
# Variants of: B1
# Test: protein stability index of a GFP-peptide fusion (GPS, HEK-293T) (PSI 1-6); higher = more stable
# Conditions: c terminus: a fixed tail appended
# 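Further: lentivirally expressed fusions sorted by FACS into six bins by GFP to DsRed ratio, PSI derived from sequencing read proportions per bin multiplied by bin number.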
row,Variant,protein stability index
1,FSDDEEDLNSKGKKREFRQHPIKE [F19Q],5.14
2,FSDDEEDLNSKGKKREFRHHPIKE [F19H],5.29
3,FSDDEEDLNSKGKKREFRIHPIKE [F19I],4.68
4,FSDDEEDLNSKGKKREFRNHPIKE [F19N],5.26
5,FSDDEEDLNSKGKKPEFRFHPIKE [R15P],2.6
6,FSDDEEDLNSKGKKEEFRFHPIKE [R15E],4.63
7,FSDDEEDLNSKGKKSEFRFHPIKE [R15S],3.6
8,FSDDEEDLNSKGKKIEFRFHPIKE [R15I],3.47
9,FSDDEEDLNSKGKKVEFRFHPIKE [R15V],3.14
10,FSDDEEDLNSKGKKKEFRFHPIKE [R15K],3.89
11,FSDDEEDLNSKGKKQEFRFHPIKE [R15Q],3.62
12,FSDDEEDLNSKGKKMEFRFHPIKE [R15M],2.56
13,FSDDEEDLNSKGKKLEFRFHPIKE [R15L],2.53
14,FSDDEEDLNSKGKKFEFRFHPIKE [R15F],2.81
15,FSDDEEDLNSKGKKNEFRFHPIKE [R15N],3.49
16,FSDDEEDLNSKGKKDEFRFHPIKE [R15D],3.94
17,FSDDEEDLNSKGKKWEFRFHPIKE [R15W],2.42
18,FSDDEEDLNSKGKKAEFRFHPIKE [R15A],3.8
19,FSDDEEDLNSKGKKYEFRFHPIKE [R15Y],2.56
20,FSDDEEDLNSKGKKGEFRFHPIKE [R15G],3.2
21,FSDDEEDLNSKGKKHEFRFHPIKE [R15H],2.26
22,FSDDEEDLNSKGKKTEFRFHPIKE [R15T],3.38
23,FSDDEEDLNSKGKKCEFRFHPIKE [R15C],3.31
24,FSDDEEDLNSKGKKRFFRFHPIKE [E16F],3.05

row,Variant,protein stability index
1,FSDDEEDLNSKGKKRHFRFHPIKE [E16H],3.08
2,FSDDEEDLNSKGKKRSFRFHPIKE [E16S],2.93
3,FSDDEEDLNSKGKKRPFRFHPIKE [E16P],2.17
4,FSDDEEDLNSKGKKRYFRFHPIKE [E16Y],2.61
5,FSDDEEDLNSKGKKRAFRFHPIKE [E16A],2.25
6,FSDDEEDLNSKGKKRGFRFHPIKE [E16G],2.41
7,FSDDEEDLNSKGKKRTFRFHPIKE [E16T],2.67
8,FSDDEEDLNSKGKKRQFRFHPIKE [E16Q],2.61
9,FSDDEEDLNSKGKKRLFRFHPIKE [E16L],3.46
10,FSDDEEDLNSKGKKRNFRFHPIKE [E16N],2.88
11,FSDDEEDLNSKGKKRMFRFHPIKE [E16M],2.74
12,FSDDEEDLNSKGKKRVFRFHPIKE [E16V],2.89
13,FSDDEEDLNSKGKKRKFRFHPIKE [E16K],3.69
14,FSDDEEDLNSKGKKRDFRFHPIKE [E16D],4
15,FSDDEEDLNSKGKKRIFRFHPIKE [E16I],2.58
16,FSDDEEDLNSKGKKRRFRFHPIKE [E16R],2.23
17,FSDDEEDLNSKGKKRWFRFHPIKE [E16W],2.45
18,FSDDEEDLNSKGKKRCFRFHPIKE [E16C],2.37
19,FSDDEEDLNSKGPKREFRFHPIKE [K13P],2.85
20,FSDDEEDLNSKGWKREFRFHPIKE [K13W],2.29
21,FSDDEEDLNSKGSKREFRFHPIKE [K13S],3.06
22,FSDDEEDLNSKGDKREFRFHPIKE [K13D],3.4
23,FSDDEEDLNSKGHKREFRFHPIKE [K13H],2.31
24,FSDDEEDLNSKGRKREFRFHPIKE [K13R],2.99

row,Variant,protein stability index
1,FSDDEEDLNSKGQKREFRFHPIKE [K13Q],3.29
2,FSDDEEDLNSKGNKREFRFHPIKE [K13N],3.2
3,FSDDEEDLNSKGAKREFRFHPIKE [K13A],3.41
4,FSDDEEDLNSKGFKREFRFHPIKE [K13F],2.44
5,FSDDEEDLNSKGLKREFRFHPIKE [K13L],3.54
6,FSDDEEDLNSKGMKREFRFHPIKE [K13M],3.23
7,FSDDEEDLNSKGTKREFRFHPIKE [K13T],3.11
8,FSDDEEDLNSKGCKREFRFHPIKE [K13C],2.89
9,FSDDEEDLNSKGVKREFRFHPIKE [K13V],2.11
10,FSDDEEDLNSKGGKREFRFHPIKE [K13G],3.42
11,FSDDEEDLNSKGIKREFRFHPIKE [K13I],2.31
12,FSDDEEDLNSKGYKREFRFHPIKE [K13Y],3.02
13,FSDDEEDLNSKGEKREFRFHPIKE [K13E],3.6
14,FSDDEEDLNSKPKKREFRFHPIKE [G12P],2.98
15,FSDDEEDLNSKMKKREFRFHPIKE [G12M],2.58
16,FSDDEEDLNSKSKKREFRFHPIKE [G12S],2.65
17,FSDDEEDLNSKRKKREFRFHPIKE [G12R],2.14
18,FSDDEEDLNSKVKKREFRFHPIKE [G12V],2.1
19,FSDDEEDLNSKTKKREFRFHPIKE [G12T],2.44
20,FSDDEEDLNSKYKKREFRFHPIKE [G12Y],2.4
21,FSDDEEDLNSKFKKREFRFHPIKE [G12F],1.91
22,FSDDEEDLNSKNKKREFRFHPIKE [G12N],2.83
23,FSDDEEDLNSKCKKREFRFHPIKE [G12C],2.13
24,FSDDEEDLNSKIKKREFRFHPIKE [G12I],2.14

row,Variant,protein stability index
1,FSDDEEDLNSKEKKREFRFHPIKE [G12E],3.02
2,FSDDEEDLNSKWKKREFRFHPIKE [G12W],2.11
3,FSDDEEDLNSKAKKREFRFHPIKE [G12A],2.67
4,FSDDEEDLNSKHKKREFRFHPIKE [G12H],2.58
5,FSDDEEDLNSKQKKREFRFHPIKE [G12Q],3.2
6,FSDDEEDLNSKKKKREFRFHPIKE [G12K],1.98
7,FSDDEEDLNSKLKKREFRFHPIKE [G12L],2.29
8,FSDDEEDLNSKDKKREFRFHPIKE [G12D],2.92
9,FSDDEEDLNIKGKKREFRFHPIKE [S10I],2.17
10,FSDDEEDLNLKGKKREFRFHPIKE [S10L],2.57
11,FSDDEEDLNWKGKKREFRFHPIKE [S10W],3.56
12,FSDDEEDLNRKGKKREFRFHPIKE [S10R],2.41
13,FSDDEEDLNPKGKKREFRFHPIKE [S10P],2.63
14,FSDDEEDLNNKGKKREFRFHPIKE [S10N],3.37
15,FSDDEEDLNYKGKKREFRFHPIKE [S10Y],2.59
16,FSDDEEDLNTKGKKREFRFHPIKE [S10T],2.87
17,FSDDEEDLNKKGKKREFRFHPIKE [S10K],2.38
18,FSDDEEDLNHKGKKREFRFHPIKE [S10H],2.64
19,FSDDEEDLNQKGKKREFRFHPIKE [S10Q],3.43
20,FSDDEEDLNMKGKKREFRFHPIKE [S10M],3.56
21,FSDDEEDLNVKGKKREFRFHPIKE [S10V],2.75
22,FSDDEEDLNGKGKKREFRFHPIKE [S10G],2.9
